Measured values from patent US20240376218A1 (published 2024).
Values belong to the binder of their own block, whether it stands above or below them.

Key:
Assay in all cases: cell-based or functional assay
human CCR8 [1] = target: human CCR8 (human, UniProt P51685 1-355)
[2] = target: human CCR8 (P51685_CCR8_HUMAN) (human, UniProt P51685 1-355)
human CCR8 [3] = target: T1, human CCR8 (human, UniProt P51685 1-355); remark: listed apart in the source
human CCR8 [4] = target: T1, human CCR8; remark: listed apart in the source
human CCR8 [5] = target: T1, human CCR8; remark: listed apart in the source
human CCR8 [6] = target: T1, human CCR8; remark: listed apart in the source
human CCR8 [7] = target: T1, human CCR8; remark: listed apart in the source
human CCR8 [8] = target: human CCR8 (human, UniProt P51685 1-355); remark: listed apart in the source

B1: TPP-18205 (antibody, human IgG1, lambda, V domains shown)
VH: EVQLLESGGGLVQPGGSLRLSCAASGFTFSSYAMSWVRQAPGKGLEWVSGIRWNSGSKGYAGSVKGRFTISRDNSKNTLYLQMNSLRAEDTAVYYCVRSGNYYVGYHGMDVWGQGTLVTVSS
VL: QSVLTQPPSASGTPGQRVTISCSGGNSNIGTYFVSWYQQLPGTAPKLLIYTNNQRPSGVPDRFSGSKSGTSASLAISGLRSEDEADYYCETWDSNTRVFGGGTKLTVLG
Ca flux assay IC50 (nM), block of signaling induced by CCL1 at 80 ng/ml; CHO cells expressing human CCR8 (human CCR8 [1]): 1.6 nM

B2: TPP-18205 (004-F10_497A-M296-L12+497A-M326-O09-hIgG1Lambda), afucosylated (antibody, V domains shown)
VH: EVQLLESGGGLVQPGGSLRLSCAASGFTFSSYAMSWVRQAPGKGLEWVSGIRWNSGSKGYAGSVKGRFTISRDNSKNTLYLQMNSLRAEDTAVYYCVRSGNYYVGYHGMDVWGQGTLVTVSS
VL: QSVLTQPPSASGTPGQRVTISCSGGNSNIGTYFVSWYQQLPGTAPKLLIYTNNQRPSGVPDRFSGSKSGTSASLAISGLRSEDEADYYCETWDSNTRVFGGGTKLTVLG
modifications: afucosylated N-glycan at N297
ADCC EC50, activated Tregs + NK92v, Donor 1213 [2]: 0.23 nM
ADCC EC50, activated Tregs + NK92v, Donor 1730 [2]: 1.05 nM
ADCC Max Response, activated Tregs + NK92v, Donor 1213 [2]: 52%
ADCC Max Response, activated Tregs + NK92v, Donor 1730 [2]: 58%

B3: TPP-18205 (004-F10_497A-M296-L12+497A-M326-O09-hIgG1Lambda), WT (antibody, V domains shown)
VH: EVQLLESGGGLVQPGGSLRLSCAASGFTFSSYAMSWVRQAPGKGLEWVSGIRWNSGSKGYAGSVKGRFTISRDNSKNTLYLQMNSLRAEDTAVYYCVRSGNYYVGYHGMDVWGQGTLVTVSS
VL: QSVLTQPPSASGTPGQRVTISCSGGNSNIGTYFVSWYQQLPGTAPKLLIYTNNQRPSGVPDRFSGSKSGTSASLAISGLRSEDEADYYCETWDSNTRVFGGGTKLTVLG
ADCC EC50, activated Tregs + NK92v, Donor 1213 [2]: ~0.00558 nM
ADCC EC50, activated Tregs + NK92v, Donor 1730 [2]: ~0.018 nM
ADCC Max Response, activated Tregs + NK92v, Donor 1213 [2]: 20%
ADCC Max Response, activated Tregs + NK92v, Donor 1730 [2]: 24%

B4: TPP-17577 (497A-M178-K09-1-hIgG1Lambda), WT (antibody, V domains shown)
VH: EVQLLESGGGLLQPGGSLRLSCAASGFTFSNAWMSWVRQAPGKGLEWVAVISYDGRNKYSADSVKGRFTISRDNSKNTLYLQMNSLRAEDTAVYYCARGLPYGYWGQGTLVTVSS
VL: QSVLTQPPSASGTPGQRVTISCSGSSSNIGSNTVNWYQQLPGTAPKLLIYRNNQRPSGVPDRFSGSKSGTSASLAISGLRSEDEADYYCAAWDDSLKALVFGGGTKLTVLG
ADCC Max Response, activated Tregs + NK92v, Donor 1213 [2]: 10%
ADCC Max Response, activated Tregs + NK92v, Donor 1730 [2]: 13%

B5: TPP-17577 (497A-M178-K09-1-hIgG1Lambda), afucosylated (antibody, V domains shown)
VH: EVQLLESGGGLLQPGGSLRLSCAASGFTFSNAWMSWVRQAPGKGLEWVAVISYDGRNKYSADSVKGRFTISRDNSKNTLYLQMNSLRAEDTAVYYCARGLPYGYWGQGTLVTVSS
VL: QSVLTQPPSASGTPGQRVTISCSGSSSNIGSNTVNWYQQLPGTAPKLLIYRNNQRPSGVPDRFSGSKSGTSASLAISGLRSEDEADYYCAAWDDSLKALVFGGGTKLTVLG
modifications: afucosylated N-glycan at N297
ADCC EC50, activated Tregs + NK92v, Donor 1213 [2]: 1.85 nM
ADCC EC50, activated Tregs + NK92v, Donor 1730 [2]: 4.57 nM
ADCC Max Response, activated Tregs + NK92v, Donor 1213 [2]: 41%
ADCC Max Response, activated Tregs + NK92v, Donor 1730 [2]: 40%

B6: TPP-20950 (18206-gl-42-hIgG1wt-Lambda), afucosylated (antibody, V domains shown)
VH: EVQLLESGGGLVQPGGSLRLSCAASGFTFSSYGMHWVRQAPGKGLEWVSAIKWGGGSHGYADSVKGRFTISRDNSKNTLYLQMNSLRAEDTAVYYCARGHHSGKDGRFFDYWGQGTLVTVSS
VL: QSVLTQPPSVSGAPGQRVTISCTGSSSNIGAGYNVHWYQQLPGTAPKLLIYTNNRRPSGVPDRFSGSKSGTSASLAISGLRSEDEADYYCAAWDASLSGWVFGGGTKLTVLG
modifications: afucosylated (no fucose on the N-glycan at N297)
ADCP EC50 (pM); activated human Tregs donor 1212 + M2c donor 3 (human CCR8 [3]): 23 pM
ADCP Max Response (%); activated human Tregs donor 1212 + M2c donor 3 (human CCR8 [3]): 14%
ADCP EC50 (pM); activated human Tregs donor 1212 + M2c donor 4 (human CCR8 [4]): 10.7 pM
ADCP Max Response (%); activated human Tregs donor 1212 + M2c donor 4 (human CCR8 [4]): 24%
ADCP EC50 (pM); activated human Tregs donor 1212 + M2c macrophages (human CCR8 [5]): 128 pM
ADCP Max Response (%); activated human Tregs donor 1212 + M2c macrophages (human CCR8 [5]): 32%

More lines, now with the values ahead:

ADCP EC50 (pM); activated human Tregs donor 1212 + M2c donor 3 (human CCR8 [3]): 163 pM
ADCP Max Response (%); activated human Tregs donor 1212 + M2c donor 3 (human CCR8 [3]): 14%
ADCP EC50 (pM); activated human Tregs donor 1163 + M2c donor 1 (human CCR8 [6]): 766 pM
ADCP Max Response (%); activated human Tregs donor 1163 + M2c donor 1 (human CCR8 [6]): 44%
ADCP EC50 (pM); activated human Tregs donor 1163 + M2c donor 2 (human CCR8 [7]): 300 pM
ADCP Max Response (%); activated human Tregs donor 1163 + M2c donor 2 (human CCR8 [7]): 36%
ADCP EC50 (pM); activated human Tregs donor 1212 + M2c donor 4 (human CCR8 [4]): 563 pM
ADCP Max Response (%); activated human Tregs donor 1212 + M2c donor 4 (human CCR8 [4]): 23%
B7: TPP-20965 (18206-gl-58-hIgG1wt-Lambda), afucosylated (antibody, V domains shown)
VH: EVQLLESGGGLVQPGGSLRLSCAASGFTFSSYGMHWVRQAPGKGLEWVSAIKWGGGSTGYADSVKGRFTISRDNSKNTLYLQMNSLRAEDTAVYYCARGHHSGKDGRFFDYWGQGTLVTVSS
VL: QSVLTQPPSVSGAPGQRVTISCTGSSSNIGAGYNVHWYQQLPGTAPKLLIYTNNRRPSGVPDRFSGSKSGTSASLAISGLRSEDEADYYCAAWDASLSGWVFGGGTKLTVLG
modifications: afucosylated (no fucose on the N-glycan at N297)

ADCC Max Response (%); activated human Tregs (Donor 1100) as target cells, NK92v effector cells (human CCR8 [8]): 97%
ADCC hTreg EC50 (pM); activated human Tregs (Donor 1100) as target cells, NK92v effector cells (human CCR8 [8]): 9.51 pM
B8: TPP-20950, afucosylated (antibody, human IgG1, lambda, V domains shown)
VH: EVQLLESGGGLVQPGGSLRLSCAASGFTFSSYGMHWVRQAPGKGLEWVSAIKWGGGSHGYADSVKGRFTISRDNSKNTLYLQMNSLRAEDTAVYYCARGHHSGKDGRFFDYWGQGTLVTVSS
VL: QSVLTQPPSVSGAPGQRVTISCTGSSSNIGAGYNVHWYQQLPGTAPKLLIYTNNRRPSGVPDRFSGSKSGTSASLAISGLRSEDEADYYCAAWDASLSGWVFGGGTKLTVLG
modifications: afucosylated (no fucose on the N-glycan at N297)
